One block for each molecule: values may come before it.
What was measured:
C3b = experiment: SPR
C3dg = C3dg (UniProt P01024 955-1303); experiment: SPR
Sequence of C3dg (P01024 955-1303): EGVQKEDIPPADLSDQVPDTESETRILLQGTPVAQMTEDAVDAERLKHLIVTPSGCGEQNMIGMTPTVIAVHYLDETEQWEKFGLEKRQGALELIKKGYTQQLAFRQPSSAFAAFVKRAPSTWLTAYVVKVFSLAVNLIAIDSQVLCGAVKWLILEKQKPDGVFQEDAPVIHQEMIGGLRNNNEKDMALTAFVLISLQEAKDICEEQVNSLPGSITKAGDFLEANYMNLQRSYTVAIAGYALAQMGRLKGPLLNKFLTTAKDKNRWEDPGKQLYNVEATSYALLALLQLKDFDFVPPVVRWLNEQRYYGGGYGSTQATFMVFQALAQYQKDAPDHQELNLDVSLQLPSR

Kd (C3b): 1000 nM
Molecule: factor H (from UniProt P08603 19-1231) (natural protein)

Kd (C3b): 1000 nM
Molecule: mini-FH (from UniProt P08603 1-264; P08603 1107-1231) (designed binder)

binding result (C3dg): binds
B1: FH19-20 (domain or fragment, human)
chain: GKCGPPPPIDNGDITSFPLSVYAPASSVEYQCQNLYQLEGNKRITCRNGQWSEPPKCLHPCVISREIMENYNIALRWTAKQKLYSRTGESVEFVCKRGYRLSSRSHTLRTTCWDGKLEYPTCAKR

From publication PMC3825029 (Journal of immunology (Baltimore, Md. : 1950), 2013)
